Reference: the nanobody polyreactivity screen of Harvey et al. (2022)

test: yeast display, Sf9 membrane polyspecificity reagent, FACS + sequencing; frameworks hold sequencing errors
Method in brief: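 A synthetic nanobody library was expressed on Saccharomyces cerevisiae BJ5465 by galactose induction for 36–48 hours. The library was stained for 1 hour at 4 °C with 10% biotinylated, detergent-solubilized Sf9 membrane reagent and enriched with streptavidin microbeads before FACS. Low and high (top ~1%) gates were set on anti-HA fluorescence for expression and streptavidin fluorescence for reagent binding, and each polyreactivity label reflects the gate of origin.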

Sequence | polyreactivity (PSR sort gate)
QVQLVESGGGLVQAGGSLRLSCAASGSNFNIKAIGWYRQAPGKERELVATIPSGGTTSSADSVNGRFTISRDNAKNTVYLQMNSLKPEDTAVYYCYAEIYPIVKAGRHHRRRYDYWGQATQVTVSS | low polyreactivity
QVQLVESGGGLVQAGGSLRLSCAASGSNFNNNAMGWYRQAPGKERELVASISLSAGSTYYADSVKGRFTISRDNAKNTVYLQMNSLKPEDTAVYYCAAEVGYWGYQISGDYWGQGTQVTVSS | low polyreactivity
QVQLVESGGGLVQAGGSLRLSCAASGSNFNYNDMGWSRQAPGKERELVAAIDSSGTSTYYADSVKGRFTISRDNAKNTVYLQMNSLKPEDTAVYYCNADSSLGFGYWGQGTQVTVSS | low polyreactivity
QVQLVESGGGLVQAGGSLRLSCAASGSNFQRYTMGWYSQAPGKERELVAAITSRSGRTYYADSVKGRFTISRDNAKNTVYLQMNSLKPEDTAVYYCATVPYDQTRGYKYDYWGQGTQVTVSS | high polyreactivity
QVQLVESGGGLVQAGGSLRLSCAASGSNFQVYAMGWYRQAPGKERELVATIRRTGGSTYYADSVKGRFTISRDNAKNTVYLQMNSLKPEDTAVYYCAARTYGGYVLRLDYWGQGTQVTVSS | high polyreactivity
QVQLVESGGGLVQAGGSLRLSCAASGSNFRNNAMGWYRQAPGKERELVASISSSGDSTYADSVKGRFTISRDNAMITVYLQMNSLKPEDTAVYYCARDYLSPYAVDYWGQGTQVTVSS | low polyreactivity
QVQLVESGGGLVQAGGSLRLSCAASGSNFRPYAMGWYRPAPGKERELVAAISYRGGSTYYADSVKGRFTISRDNAKNTVYLQMNSLKPEDTAVYYCAADSREEGDYWGQGTQVTVSS | low polyreactivity
QVQLVESGGGLVQAGGSLRLSCAASGSNFRRNAMGWYRQAPGKERELVAAISSNGGSTYYADSVKGRFTISRDNAKNTVYLQLNSLKPEDSAVYYCNALGRVRYSPRYGYDYWGQGTQVTVSS | high polyreactivity
QVQLVESGGGLVQAGGSLRLSCAASGSNFRVYAMGWYRQAPGKERELVAAISSSGVRTSYADSVKGRFTISRDIAKNTVYLQMNSLKPEDTSVYYCADRYPYGYYHWGQGTQVTVSS | high polyreactivity
QVQLVESGGGLVQAGGSLRLSCAASGSNFRYNTMGSYRQAPGKERELVAAITQSGDNTYYADSVKGRFTISRDNAKNTVYLQMNSLKPEDTAVYYCAASGARSDGWTSYDYWGQGTQVTVSS | low polyreactivity
QVQLVESGGGLVQAGGSLRLSCAASGSNFRYYAMGWYRQAPGKERELFAAISSNGGSTSYADSVKGRFTISRDNAKNTVYLQMNSLKPEDTAVYYCAATRRWYPTKLYGYWGQGTQVTVSS | high polyreactivity
QVQLVESGGGLVQAGGSLRLSCAASGSNFSHYAMGWYRQAPGKESELVAAISSGDSTNYADSVKGRFTISRDNAKNTVYLQMSSVKPEDTAVYYCAKTRRRLLTRYDYWGQGTQVSVSS | low polyreactivity
QVQLVESGGGLVQAGGSLRLSCAASGSNFSYTMGWYRQAPGKERELVAAITSGGITYYADSVKRRFTISRDNAKNTVYLQMNCLKPEDTAVYYCNAYYPYGLASFYYWGQGTQVTVSS | low polyreactivity
QVQLVESGGGLVQAGGSLRLSCAASGSNFVVNAMGWYRQAPGKERELVAAITQSGGSTFYADSVKGRFTISRDNAKNTVYLLMNSLKPEDSAVYYWGQGTQVTVSS | low polyreactivity
QVQLVESGGGLVQAGGSLRLSCAASGSNFVYNAMGRNRQAPGKERELVAAISSGGRTNYADSVKGRFTISRDNANNTVYLQMNSLKPEDTAVYYCADEGLLWWSGYYYWGQGTQVTVYS | high polyreactivity
QVQLVESGGGLVQAGGSLRLSCAASGSNFWAYTMGWYRQAPGKERELVAVITDSTGSTYYADSVKGRFTISRDNAMNTVFLQMNSLKPEDTAVYYCAARLWIGYLKYDYWGQGTQVTVSS | high polyreactivity
QVQLVESGGGLVQAGGSLRLSCAASGSNFWLYAMGWYRQAPGKERELVAAIRSGDRTNYADSVKGRFTISRDNAKNTVYLQMNSLKPEDTAVYYCAAVAYLNWTPHYYWGQGTQVTVSS | low polyreactivity
